These results are taken from PMC8654288, “Structural basis of DegP protease temperature-dependent activation” (Science Advances, 2021).

“And” between values parts separate entries of the source, which are not always exact repeats. Equal entries are not always repeated. No end group written: not given here. NO3 = not defined here

To fix the notation:
B1: DegP PDZ1-PDZ2 domain construct (DegP^261-448) (domain or fragment, E. coli K12, UniProt P0C0V0 287-474, looked up)
chain: KRGELGIMGTELNSELAKAMKVDAQRGAFVSQVLPNSSAAKAGIKAGDVITSLNGKPISSFAALRAQVGTMPVGSKLTLGLLRDGKQVNVNLELQQSSQNQVDSSSIFNGIEGAEMSNKGKDQGVVVNNVKTGTPAAQIGLKKGDVIIGANQQAVKNIAELRKVLDSKPSVLALNIQRGDSTIYLLMQ
notes: DegP protease, E. coli K12, PDZ1-PDZ2 domains, residues 261-448; numbers count on: the mature protein; Isotope-labelled for NMR; also called PDZ1-PDZ2 bidomain; pDS12; source: E. coli BL21 Star (λ DE3), purified (Ni2+ Sepharose, SENP1 cleavage, Superdex 75 Increase SEC); not shown: His6-SUMO, N-terminal, cleaved

Data set [1] concerns the molecule itself. The data set is described as follows: NMR line broadening and peak intensities ([13C,1H] spectra of side chains); [U-13C,15N]-PDZ1-PDZ2 alone at 25° to 50°C; Y444 Cα and ring resonances, M280 ε-methyl open and locked states.
The target of data set [2] is T1, DegP^S210A,Y444A (E. coli K12), P0C0V0.
T1 chain: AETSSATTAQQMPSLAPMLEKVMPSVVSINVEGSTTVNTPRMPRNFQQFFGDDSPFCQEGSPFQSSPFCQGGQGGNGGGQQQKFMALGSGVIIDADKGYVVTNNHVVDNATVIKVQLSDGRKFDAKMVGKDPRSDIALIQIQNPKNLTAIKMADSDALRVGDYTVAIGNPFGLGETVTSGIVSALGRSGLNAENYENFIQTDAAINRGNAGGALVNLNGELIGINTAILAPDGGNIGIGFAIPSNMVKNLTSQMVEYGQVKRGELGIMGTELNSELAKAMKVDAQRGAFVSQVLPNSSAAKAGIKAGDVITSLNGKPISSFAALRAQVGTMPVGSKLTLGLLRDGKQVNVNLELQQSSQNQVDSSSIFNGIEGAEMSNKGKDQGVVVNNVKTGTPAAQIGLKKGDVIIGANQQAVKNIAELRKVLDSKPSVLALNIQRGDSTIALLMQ
Description: NMR pulsed field gradient diffusion (13C-methyl-filtered); [U-2H, Ile-δ1-13CH3]-DegP samples at 25°C; NMR buffer 25 mM potassium phosphate, 1 mM EDTA, 1 mM TCEP pH 7.0; oligomeric state from viscosity- and temperature-corrected translational diffusion coefficient against a calibration curve; hexamer to trimers. The conditions noted are these: remark: other sources report otherwise.

For data set [3] the target is unchanged. Description: SEC; full-length DegP^S210A variants alone; 8°C stated for DegP^S210A,Y444A; trimer and hexamer species. Conditions: remark: other sources report otherwise.
Data set [4] concerns the molecule itself. The data set is described as follows: NMR pulsed field gradient diffusion (13C-methyl-filtered); DegP^S210A,M280I, temperature series (fig. S1, K and L); hexamer to trimers.
Data set [5] concerns the molecule itself. Description: NMR pulsed field gradient diffusion (13C-methyl-filtered); [U-2H, Ile-δ1-13CH3]-DegP samples at 25°C; NMR buffer 25 mM potassium phosphate, 1 mM EDTA, 1 mM TCEP pH 7.0; oligomeric state from viscosity- and temperature-corrected translational diffusion coefficient against a calibration curve; hexamer to trimers.
Data set [6] deals with the molecule itself. The data set is described as follows: NMR pulsed field gradient diffusion (13C-methyl-filtered); [U-2H, Ile-δ1-13CH3]-DegP samples at 43° and 50°C; NMR buffer pH 7.0; hexamer to trimers.
Data set [7] concerns the molecule itself. The data set is described as follows: SEC; full-length DegP^S210A variants alone; 8°C stated for DegP^S210A,Y444A; trimer and hexamer species.
Data set [8] deals with T2, DegP PDZ1 domain (DegP^261-354) (E. coli K12, UniProt P0C0V0 287-380).
T2 construct: DegP protease, E. coli K12, PDZ1 domain, residues 261-354; numbers count on: the mature protein; [U-15N]-labelled when observed in NMR titrations; also called pDS10; source: E. coli BL21 Star (λ DE3), purified (Ni2+ Sepharose, SENP1 cleavage, Superdex 75 Increase SEC); not shown: His6-SUMO, N-terminal, cleaved
T2 sequence (looked up): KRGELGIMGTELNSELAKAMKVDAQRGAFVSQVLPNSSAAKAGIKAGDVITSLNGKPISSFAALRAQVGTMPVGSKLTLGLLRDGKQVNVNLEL
The data set is described as follows: BLI; Octet RED96, 25°C; biotinylated PDZ2 on streptavidin biosensors, PDZ1 as analyte; steady-state analysis; 0.1% BSA, 0.05% Tween 20; association 30 s, dissociation 40 s. Conditions: both partners purified. (In BLI a coated tip is dipped into the sample, and binding shifts an interference pattern.)

The next data set addresses T3, biotinylated PDZ1 domain (E. coli K12, UniProt P0C0V0 287-380, biotin (EZ-Link NHS-PEG4-Biotin, molar ratio 1:1 at pH 6.0 to ensure preferential labeling of the N-terminal α-amino group)).
T3 construct: DegP protease, E. coli K12, PDZ1 domain, residues 261-354; numbers count on: the mature protein; m5 after biotinylation; immobilised on streptavidin biosensors; source: E. coli BL21 Star (λ DE3), purified, then biotinylated (EZ-Link NHS-PEG4-Biotin); not shown: His6-SUMO, N-terminal, cleaved
T3 sequence (looked up): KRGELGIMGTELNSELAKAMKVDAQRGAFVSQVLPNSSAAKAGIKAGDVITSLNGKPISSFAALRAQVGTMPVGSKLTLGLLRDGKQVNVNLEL
The data set is described as follows: BLI; Octet RED96, 25°C; biotinylated PDZ1 on streptavidin biosensors, PDZ2 as analyte; initial tests. Conditions: both partners purified.

Data set [9] has as its target B1. The data set is described as follows: NMR titration; substrates (p23, β-casein, nonactivating reporter peptide) added to the DegP PDZ domains (fig. S12); β-casein up to half equimolar ratio. Conditions: both partners purified.

As usually defined, the stoichiometry N is the number of molecules, sites or subunits per partner or assembly. As for B1, in data set [1], the “ratio of open to locked state of M280 at 37°C” value came out at 1 and the “stoichiometry N” value came out at 2.

B2: DegP^S210A,Y444A, P0C0V0 27-474 (enzyme)
chain: AETSSATTAQQMPSLAPMLEKVMPSVVSINVEGSTTVNTPRMPRNFQQFFGDDSPFCQEGSPFQSSPFCQGGQGGNGGGQQQKFMALGSGVIIDADKGYVVTNNHVVDNATVIKVQLSDGRKFDAKMVGKDPRSDIALIQIQNPKNLTAIKMADSDALRVGDYTVAIGNPFGLGETVTSGIVSALGRSGLNAENYENFIQTDAAINRGNAGGALVNLNGELIGINTAILAPDGGNIGIGFAIPSNMVKNLTSQMVEYGQVKRGELGIMGTELNSELAKAMKVDAQRGAFVSQVLPNSSAAKAGIKAGDVITSLNGKPISSFAALRAQVGTMPVGSKLTLGLLRDGKQVNVNLELQQSSQNQVDSSSIFNGIEGAEMSNKGKDQGVVVNNVKTGTPAAQIGLKKGDVIIGANQQAVKNIAELRKVLDSKPSVLALNIQRGDSTIALLMQ
Take B2: the stoichiometry N is 3 in data set [2]; 3 and 6 in data set [3].

B3: DegP^S210A,M280I (enzyme, E. coli K12, UniProt P0C0V0 27-474, looked up)
chain: AETSSATTAQQMPSLAPMLEKVMPSVVSINVEGSTTVNTPRMPRNFQQFFGDDSPFCQEGSPFQSSPFCQGGQGGNGGGQQQKFMALGSGVIIDADKGYVVTNNHVVDNATVIKVQLSDGRKFDAKMVGKDPRSDIALIQIQNPKNLTAIKMADSDALRVGDYTVAIGNPFGLGETVTSGIVSALGRSGLNAENYENFIQTDAAINRGNAGGALVNLNGELIGINTAILAPDGGNIGIGFAIPSNMVKNLTSQMVEYGQVKRGELGIMGTELNSELAKAIKVDAQRGAFVSQVLPNSSAAKAGIKAGDVITSLNGKPISSFAALRAQVGTMPVGSKLTLGLLRDGKQVNVNLELQQSSQNQVDSSSIFNGIEGAEMSNKGKDQGVVVNNVKTGTPAAQIGLKKGDVIIGANQQAVKNIAELRKVLDSKPSVLALNIQRGDSTIYLLMQ
notes: numbers count on: the mature protein
As to B3, the binding result in [4] is “binds”.

B4: DegP^S210A (full-length DegP, active site serine mutated) (enzyme, E. coli K12, UniProt P0C0V0 27-474, looked up)
chain: AETSSATTAQQMPSLAPMLEKVMPSVVSINVEGSTTVNTPRMPRNFQQFFGDDSPFCQEGSPFQSSPFCQGGQGGNGGGQQQKFMALGSGVIIDADKGYVVTNNHVVDNATVIKVQLSDGRKFDAKMVGKDPRSDIALIQIQNPKNLTAIKMADSDALRVGDYTVAIGNPFGLGETVTSGIVSALGRSGLNAENYENFIQTDAAINRGNAGGALVNLNGELIGINTAILAPDGGNIGIGFAIPSNMVKNLTSQMVEYGQVKRGELGIMGTELNSELAKAMKVDAQRGAFVSQVLPNSSAAKAGIKAGDVITSLNGKPISSFAALRAQVGTMPVGSKLTLGLLRDGKQVNVNLELQQSSQNQVDSSSIFNGIEGAEMSNKGKDQGVVVNNVKTGTPAAQIGLKKGDVIIGANQQAVKNIAELRKVLDSKPSVLALNIQRGDSTIYLLMQ
notes: numbers count on: the mature protein; Isotope-labelled for NMR ([U-2H,15N] or [U-2H, Ile-d1-13CH3]); also called full-length DegP^S210A
Take B4: the entries for the “stoichiometry N” value in data set [5] and in data set [6] were 6 and 3, respectively.

B5: DegP^S210A,M280A (enzyme, E. coli K12, UniProt P0C0V0 27-474, looked up)
chain: AETSSATTAQQMPSLAPMLEKVMPSVVSINVEGSTTVNTPRMPRNFQQFFGDDSPFCQEGSPFQSSPFCQGGQGGNGGGQQQKFMALGSGVIIDADKGYVVTNNHVVDNATVIKVQLSDGRKFDAKMVGKDPRSDIALIQIQNPKNLTAIKMADSDALRVGDYTVAIGNPFGLGETVTSGIVSALGRSGLNAENYENFIQTDAAINRGNAGGALVNLNGELIGINTAILAPDGGNIGIGFAIPSNMVKNLTSQMVEYGQVKRGELGIMGTELNSELAKAAKVDAQRGAFVSQVLPNSSAAKAGIKAGDVITSLNGKPISSFAALRAQVGTMPVGSKLTLGLLRDGKQVNVNLELQQSSQNQVDSSSIFNGIEGAEMSNKGKDQGVVVNNVKTGTPAAQIGLKKGDVIIGANQQAVKNIAELRKVLDSKPSVLALNIQRGDSTIYLLMQ
notes: as for B3
As to B5, in [7], the “stoichiometry N” value is 3 and 6.

B6: biotinylated PDZ2 domain (domain or fragment, E. coli K12, UniProt P0C0V0 385-474, looked up)
chain: QNQVDSSSIFNGIEGAEMSNKGKDQGVVVNNVKTGTPAAQIGLKKGDVIIGANQQAVKNIAELRKVLDSKPSVLALNIQRGDSTIYLLMQ
modifications: biotin (EZ-Link NHS-PEG4-Biotin, molar ratio 1:1 at pH 6.0 to ensure preferential labeling of the N-terminal α-amino group)
notes: DegP protease, E. coli K12, PDZ2 domain, residues 359-448; numbers count on: the mature protein; m6 after biotinylation; immobilised on streptavidin biosensors; source: E. coli BL21 Star (λ DE3), purified, then biotinylated (EZ-Link NHS-PEG4-Biotin); not shown: His6-SUMO, N-terminal, cleaved
As usually defined, the Kd is a measure of binding affinity in units of concentration. A higher Kd goes with a looser complex. Take B6: in [8], binding was characterised by a dissociation constant (Kd) of 7.8 ± 0.9 µM.

B7: DegP PDZ2 domain (DegP^359-448) (domain or fragment, E. coli K12, UniProt P0C0V0 385-474, looked up)
chain: QNQVDSSSIFNGIEGAEMSNKGKDQGVVVNNVKTGTPAAQIGLKKGDVIIGANQQAVKNIAELRKVLDSKPSVLALNIQRGDSTIYLLMQ
notes: DegP protease, E. coli K12, PDZ2 domain, residues 359-448; numbers count on: the mature protein; [U-15N]-labelled when observed in NMR titrations; also called pDS11; source: E. coli BL21 Star (λ DE3), purified (Ni2+ Sepharose, SENP1 cleavage, Superdex 75 Increase SEC); not shown: His6-SUMO, N-terminal, cleaved
Turning to B7, in the data set with biotinylated PDZ1 domain, the “fold weakening of Kd against PDZ1 on biotinylated PDZ2” value was approximately 10 fold.

B8: p23 peptide (Abz-GNWVSAAKFETYR^NO3SKNTQDYGILQI) (peptide)
peptide: Abz-GNWVSAAKFETYR(NO3)SKNTQDYGILQI
modifications: reading uncertain; also: printed as Abz-GNWVSAAKFETYR^NO3^SKNTQDYGILQI
notes: The superscript probably marks a nitrotyrosine quencher at Y12; also called fluorescent p23 peptide; source: synthetic peptide, bought: GenScript
Take B8: the binding result in [9] was “binds”.
